We go through 1 molecule from patent publication US7442684 (TRUSTEES OF COLUMBIA UNIVERSITY IN THE CITY OF NEW YORK, dated 2008).

For the assay, the target named is T1, human FSH receptor (human, UniProt P23945 18-695).
T1 construct: whole, on cells; Expressed in Y-1 (Y1) cells. cAMP is the read-out; also called hFSH receptor; recombinant native hFSH receptor
T1 sequence (looked up): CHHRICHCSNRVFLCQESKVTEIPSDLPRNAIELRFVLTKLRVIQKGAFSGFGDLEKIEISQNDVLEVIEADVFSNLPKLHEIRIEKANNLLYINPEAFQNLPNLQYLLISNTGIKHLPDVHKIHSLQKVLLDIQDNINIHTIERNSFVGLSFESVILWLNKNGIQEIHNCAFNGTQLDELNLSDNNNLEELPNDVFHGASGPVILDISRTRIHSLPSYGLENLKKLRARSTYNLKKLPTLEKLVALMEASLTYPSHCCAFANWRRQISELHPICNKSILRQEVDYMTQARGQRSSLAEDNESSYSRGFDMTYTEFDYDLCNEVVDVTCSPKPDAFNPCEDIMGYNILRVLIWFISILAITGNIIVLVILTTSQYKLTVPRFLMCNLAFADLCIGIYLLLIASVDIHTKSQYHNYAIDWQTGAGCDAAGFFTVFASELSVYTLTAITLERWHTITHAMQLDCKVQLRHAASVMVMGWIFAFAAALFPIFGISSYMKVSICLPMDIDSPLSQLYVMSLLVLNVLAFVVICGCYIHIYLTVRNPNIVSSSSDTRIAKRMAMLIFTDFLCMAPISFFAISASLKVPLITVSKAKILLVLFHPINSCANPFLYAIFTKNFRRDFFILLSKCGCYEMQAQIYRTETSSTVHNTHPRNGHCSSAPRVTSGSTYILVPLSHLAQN
The assay can be described thus: conclusion drawn from the cAMP assay on cells expressing the hFSH receptor; no direct binding assay. How it is done: Bioactivity of the hFSH analogues was evaluated using Y-1 cells transfected with the FSH receptor. Y-1 cell cultures were mixed with the fusion protein and native pituitary hFSH (control) at varying concentrations and media was assayed for cAMP activity as described in Bouloux et al, 2001.
Figure 8: FIG. 8: In vitro bioassay of hormone activity. cAMP concentration (fmol/ml) was quantitated in Y1 cells expressing the FSH receptor after treatment with the indicated amount of either pituitary FSH (pFSH) or the FSH analogue, β-hFSH-CTP-α-hFSH (rFSH-CTP).
The bioactivity of the β-hFSH-CTP-α analogue was first assessed by an assay of hFSH receptor activity. In this assay, a recombinant native hFSH receptor is expressed in a suitable host cell and cAMP induction is measured following incubation with hormone (Lindau-Shepard et al, 2001).
In general terms: Changes in cAMP serve as a functional read-out for many G protein-coupled receptors.

B1: β-hFSH-CTP-α-hFSH fusion protein (ligand)
chain: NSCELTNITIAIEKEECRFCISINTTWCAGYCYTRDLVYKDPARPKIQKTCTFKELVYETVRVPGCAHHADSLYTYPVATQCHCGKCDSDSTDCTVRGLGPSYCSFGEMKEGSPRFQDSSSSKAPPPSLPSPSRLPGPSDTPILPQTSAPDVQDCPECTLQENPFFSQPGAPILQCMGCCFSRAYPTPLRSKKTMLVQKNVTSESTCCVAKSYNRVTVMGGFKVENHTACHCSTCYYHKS
modifications: O-linked glycosylation on serines of the CTP linker; N-linked glycosylation on the FSH subunits (sites not numbered on this entry)
notes: Secreted from CHO cells; also called β-hFSH-CTP-α analogue; rFSH-CTP
Turning to B1, the binding result is reported as “binds”.
